According to the supplement of paper PMC3353916:
± gives the standard deviation of the averaged measurements.

Tested on: Sindbis virus TE/5'2J-GFP
Experiment: percent infected (GFP+ in RFP+ ISG-expressing cells); higher = more infection (less antiviral activity)
Method: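 Confirmatory testing of 87 ISGs. Triplicate wells of BHK/HA-Zeo (control) or BHK/NZAP-Zeo (ZAP) cells were transduced with lentiviruses co-expressing a human ISG plus TagRFP, then infected 48 h later with SINV TE/5'2J-GFP (moi 5). The % GFP+ cells among RFP+ cells was measured by flow cytometry at 8 h post infection. Fluc lentivirus served as control. Three independent experiments.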

[1] = experiment: confirmatory screen 1, BHK/HA-Zeo (control)
[2] = experiment: confirmatory screen 1, BHK/NZAP-Zeo (ZAP)
[3] = experiment: confirmatory screen 2, BHK/HA-Zeo (control)
[4] = experiment: confirmatory screen 2, BHK/NZAP-Zeo (ZAP)
[5] = experiment: confirmatory screen 3, BHK/HA-Zeo (control)
[6] = experiment: confirmatory screen 3, BHK/NZAP-Zeo (ZAP)
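Note: Interferon-defective BHK-21 derivatives, ZAP line overexpressing the rat ZAP N-terminal zinc finger domain fused to Zeocin resistance, GFP scored within live singlet TagRFP+ cells.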

Substance	percent infected [1] [%]	percent infected [2] [%]	percent infected [3] [%]	percent infected [4] [%]	percent infected [5] [%]	percent infected [6] [%]
MASGRARCTRKLRNWVVEQVESGQFPGVCWDDTAKTMFRIPWKHAGKQDFREDQDAAFFKAWAIFKGKYKEGDTGGPAVWKTRLRCALNKSSEFKEVPERGRMDVAEPYKVYQLLPPGIVSGQPGTQKVPSKRQHSSVSSERKEEEDAMQNCTLSPSVLQDSLNNEEEGASGGAVHSDIGSSSSSSSPEPQEVTDTTEAPFQGDQRSLEFLLPPEPDYSLLLTFIYNGRVVGEAQVQSLDCRLVAEPSGSESSMEQVLFPKPGPLEPTQRLLSQLERGILVASNPRGLFVQRLCPIPISWNAPQAPPGPGPHLLPSNECVELFRTAYFCRDLVRYFQGLGPPPKFQVTLNFWEESHGSSHTPQNLITVKMEQAFARYLLEQTPEQQAAILSLV [IRF9]	95.7 ± 1.1	77.9 ± 2.2	95.77 ± 0.51	95.5 ± 0.37	94.29 ± 0.52	92.97 ± 0.35
MAGIELERCQQQANEVTEIMRNNFGKVLERGVKLAELQQRSDQLLDMSSTFNKTTQNLAQKKCWENIRYRICVGLVVVGVLLIILIVLLVVFLPQSSDSSSAPRTQDAGIASGPGN [VAMP5]	97.4 ± 0.76	78.6 ± 3.2	96.57 ± 0.3	94.74 ± 0.23	93.95 ± 0.59	93.52 ± 0.17
MTLRCLEPSGNGGEGTRSQWGTAGSAEEPSPQAARLAKALRELGQTGWYWGSMTVNEAKEKLKEAPEGTFLIRDSSHSDYLLTISVKTSAGPTNLRIEYQDGKFRLDSIICVKSKLKQFDSVVHLIDYYVQMCKDKRTGPEAPRNGTVHLYLTKPLYTSAPSLQHLCRLTINKCTGAIWGLPLPTRLKDYLEEYKFQV [SOCS2]	95.84 ± 0.81	76.8 ± 4.2	95.47 ± 0.42	94.44 ± 0.35	92.29 ± 0.39	92.23 ± 0.73
MAQASPPRPERVLGASSPEARPAQEALLLPTGVFQVAEKMEKRTCALCPKDVEYNVLYFAQSENIAAHENCLLYSSGLVECEDQDPLNPDRSFDVESVKKEIQRGRKLKCKFCHKRGATVGCDLKNCNKNYHFFCAKKDDAVPQSDGVRGIYKLLCQQHAQFPIIAQSAKFSGVKRKRGRKKPLSGNHVQPPETMKCNTFIRQVKEEHGRHTDATVKVPFLKKCKEAGLLNYLLEEILDKVHSIPEKLMDETTSESDYEEIGSALFDCRLFEDTFVNFQAAIEKKIHASQQRWQQLKEEIELLQDLKQTLCSFQENRDLMSSSTSISSLSY [PHF11]	76.3 ± 5.1	50.3 ± 2.9	91.99 ± 0.75	93.69 ± 0.2	89.11 ± 0.58	89.89 ± 0.28
MSSENCFVAENSSLHPESGQENDATSPHFSTRHEGSFQVPVLCAVMNVVFITILIIALIALSVGQYNCPGQYTFSMPSDSHVSSCSEDWVGYQRKCYFISTVKRSWTSAQNACSEHGATLAVIDSEKDMNFLKRYAGREEHWVGLKKEPGHPWKWSNGKEFNNWFNVTGSDKCVFLKNTEVSSMECEKNLYWICNKPYK [CD69]	95.94 ± 0.47	68.2 ± 4.8	94.01 ± 0.54	94.27 ± 0.39	91.7 ± 1.1	93.02 ± 0.27
MAPEINLPGPMSLIDNTKGQLVVNPEALKILSAITQPVVVVAIVGLYRTGKSYLMNKLAGKKNGFSLGSTVKSHTKGIWMWCVPHPKKPEHTLVLLDTEGLGDIEKGDNENDSWIFALAILLSSTFVYNSMGTINQQAMDQLHYVTELTDRIKANSSPGNNSVDDSADFVSFFPAFVWTLRDFTLELEVDGEPITADDYLELSLKLRKGTDKKSKSFNDPRLCIRKFFPKRKCFVFDWPAPKKYLAHLEQLKEEELNPDFIEQVAEFCSYILSHSNVKTLSGGIPVNGPRLESLVLTYVNAISSGDLPCMENAVLALAQIENSAAVEKAIAHYEQQMGQKVQLPTETLQELLDLHRDSEREAIEVFMKNSFKDVDQMFQRKLGAQLEARRDDFCKQNSKASSDCCMALLQDIFGPLEEDVKQGTFSKPGGYRLFTQKLQELKNKYYQVPRKGIQAKEVLKKYLESKEDVADALLQTDQSLSEKEKAIEVERIKAESAEAAKKMLEEIQKKNEEMMEQKEKSYQEHVKQLTEKMERDRAQLMAEQEKTLALKLQEQERLLKEGFENESKRLQKDIWDIQMRSKSLEPICNIL [GBP2]	96.3 ± 0.94	80.8 ± 0.62	94.84 ± 0.44	95.94 ± 0.23	93.28 ± 0.57	94.23 ± 0.41
MMFRDQVGVLAGWFKGWNECEQTVALLSLLKRVSQTQARFLQLCLEHSLADCAELHVLEREANSPGIINQWQQESKDKVISLLLTHLPLLKPGNLDAKVEYMKLLPKILAHSIEHNQHIEESRQLLSYALIHPATSLEDRSALAMWLNHLEDRTSTSFGGQNRGRSDSVDYGQTHYYHQRQNSDDKLNGWQNSRDSGICINASNWQDKSMGCENGHVPLYSSSSVPTTINTIGTSTSTILSGQAHHSPLKRSVSLTPPMNVPNQPLGHGWMSHEDLRARGPQCLPSDHAPLSPQSSVASSGSGGSEHLEDQTTARNTFQEEGSGMKDVPAWLKSLRLHKYAALFSQMTYEEMMALTECQLEAQNVTKGARHKIVISIQKLKERQNLLKSLERDIIEGGSLRIPLQELHQMILTPIKAYSSPSTTPEARRREPQAPRQPSLMGPESQSPDCKDGAAATGATATPSAGASGGLQPHQLSSCDGELAVAPLPEGDLPGQFTRVMGKVCTQLLVSRPDEENISSYLQLIDKCLIHEAFTETQKKRLLSWKQQVQKLFRSFPRKTLLDISGYRQQRNRGFGQSNSLPTAGSVGGGMGRRNPRQYQIPSRNVPSARLGLLGTSGFVSSNQRNTTATPTIMKQGRQNLWFANPGGSNSMPSRTHSSVQRTRSLPVHTSPQNMLMFQQPEFQLPVTEPDINNRLESLCLSMTEHALGDGVDRTSTI [SAMD4A]	80.4 ± 0.93	12.5 ± 0.52	92.98 ± 0.71	93.39 ± 0.29	83.1 ± 1.3	84.55 ± 0.77
MAFF	92.89 ± 0.73	70.1 ± 7.5	94.1 ± 0.95	93.98 ± 0.15	93.24 ± 0.65	91.23 ± 0.34
MEKGPVRAPAEKPRGARCSNGFPERDPPRPGPSRPAEKPPRPEAKSAQPADGWKGERPRSEEDNELNLPNLAAAYSSILSSLGENPQRQGLLKTPWRAASAMQFFTKGYQETISDVLNDAIFDEDHDEMVIVKDIDMFSMCEHHLVPFVGKVHIGYLPNKQVLGLSKLARIVEIYSRRLQVQERLTKQIAVAITEALRPAGVGVVVEATHMCMVMRGVQKMNSKTVTSTMLGVFREDPKTREEFLTLIRS [GCH1]	95.976 ± 0.021	74 ± 2	95.09 ± 0.34	93.4 ± 1.6	92.6 ± 0.98	92.19 ± 0.15
MDENNGLLLLELNPPNPWDLQPRSPEELAFGEVQITYLTHACMDLKLGDKRMVFDPWLIGPAFARGWWLLHEPPSDWLERLCQADLIYISHLHSDHLSYPTLKKLAGRRPDIPIYVGNTERPVFWNLNQSGVQLTNINVVPFGIWQQVDKNLRFMILMDGVHPEMDTCIIVEYKGHKILNIVDCTRPNGGRLPMKVALMMSDFAGGASGFPMTFSGGKFTEEWKAQFIKTERKKLLNYKARLVKNLQPRIYCPFAGYFVESHPSDKYIKETNTKNDPNELNNLIKKNSDVITWTPRPGATLDLGRMLKDRTDSKGIIEPPEGTKIYKDSWDFEPYLEILNAALGDEIFLHSSWIKEYFTWAGFKDYNLVVRMIETDEDFNPFPGGYDYLVDFLDLSFPKERPQREHPYEEIHSRVDVIRHVVKNGLLWDELYIGFQTRLQRDPDIYHHLFWNHFQIKLPLTPPNWKSFLMCCEQNGPVILQFSTERTNEPNRNKFSVENKA [CMAH]	94.7 ± 1.2	75.3 ± 1.9	95.1 ± 0.29	94.26 ± 0.25	93.1 ± 0.62	92.979 ± 0.089
MGERTLHAAVPTPGYPESESIMMAPICLVENQEEQLTVNSKALEILDKISQPVVVVAIVGLYRTGKSYLMNRLAGKRNGFPLGSTVQSETKGIWMWCVPHLSKPNHTLVLLDTEGLGDVEKSNPKNDSWIFALAVLLSSSFVYNSVSTINHQALEQLHYVTELAELIRAKSCPRPDEAEDSSEFASFFPDFIWTVRDFTLELKLDGNPITEDEYLENALKLIPGKNPKIQNSNMPRECIRHFFRKRKCFVFDRPTNDKQYLNHMDEVPEENLERHFLMQSDNFCSYIFTHAKTKTLREGIIVTGKRLGTLVVTYVDAINSGAVPCLENAVTALAQLENPAAVQRAADHYSQQMAQQLRLPTDTLQELLDVHAACEREAIAVFMEHSFKDENHEFQKKLVDTIEKKKGDFVLQNEEASAKYCQAELKRLSEHLTESILRGIFSVPGGHNLYLEEKKQVEWDYKLVPRKGVKANEVLQNFLQSQVVVEESILQSDKALTAGEKAIAAERAMKEAAEKEQELLREKQKEQQQMMEAQERSFQEYMAQMEKKLEEERENLLREHERLLKHKLKVQEEMLKEEFQKKSEQLNKEINQLKEKIESTKNEQLRLLKILDMASNIMIVTLPGASKLLGVGTKYLGSRI [GBP4]	95 ± 2.1	63 ± 6	95.8 ± 0.54	95.49 ± 0.44	94.22 ± 0.7	94.93 ± 0.31
MHQSLTQQRSSDMSLPDSMGAFNRRKRNSIYVTVTLLIVSVLILTVGLAATTRTQNVTVGGYYPGVILGFGSFLGIIGSNLIENKRQMLVASIVFISFGVIAAFCCAIVDGVFAARHIDLKPLYANRCHYVPKTSQKEAEEVISSSTKNSPSTRVMRNLTQAAREVNCPHLSREFCTPRIRGNTCFCCDLYNCGNRVEITGGYYEYIDVSSCQDIIHLYHLLWSATILNIVGLFLGIITAAVLGGFKDMNPTLPALNCSVENTHPTVSYYAHPQVASYNTYYHSPPHLPPYSAYDFQHSGVFPSSPPSGLSDEPQSASPSPSYMWSSSAPPRYSPPYYPPFEKPPPYSP [FAM70A]	97.01 ± 0.45	75.9 ± 2.9	96.07 ± 0.48	95.55 ± 0.12	94.9 ± 0.5	94.05 ± 0.37
MTLNNVTMRQGTVGMQPQQQRWSIPADGRHLMVQKEPHQYSHRNRHSATPEDHCRRSWSSDSTDSVISSESGNTYYRVVLIGEQGVGKSTLANIFAGVHDSMDSDCEVLGEDTYERTLMVDGESATIILLDMWENKGENEWLHDHCMQVGDAYLIVYSITDRASFEKASELRIQLRRARQTEDIPIILVGNKSDLVRCREVSVSEGRACAVVFDCKFIETSAAVQHNVKELFEGIVRQVRLRRDSKEKNERRLAYQKRKESMPRKARRFWGKIVAKNNKNMAFKLKSKSCHDLSVL [GEM]	91.5 ± 3.5	65 ± 4	94.19 ± 0.65	94.64 ± 0.36	94.39 ± 0.59	93.55 ± 0.12
